Data from article PMC7587433, “A Giant Extracellular Matrix Binding Protein of Staphylococcus epidermidis Binds Surface-Immobilized Fibronectin via a Novel Mechanism” (mBio, 2020).

Target: T1, rFN12-14 (recombinant fibronectin type III repeats 12 to 14)
T1 construct: fibronectin, type III repeats 12 to 14; Held by its His tag on Immobilizer Nickel-Chelate plates in the adherence assays; immobilised on a C1 sensor chip in SPR
Assay: SPR; Biacore T200, C1 sensor chip; rFN12-14 immobilised (~870 RU); rF-, rFG-repeat or multiple repeats in HBS-EP injected at 40 μl/min; double referencing
Settings: both partners purified

B1: r5FG-repeats (recombinant Embp fragment, aa 6777 to 7406) (domain or fragment)
chain: ADQKLQDAKTDAKQQITNFTGLTEPQKQALENIINQQTSRANVAKQLSHAKFLNGKMEELKVAVAKASLVRQNSNYINEDVSEKEAYEQAIAKGQEIINSENNPTISSTDINRTIQEINDAEQNLHGDNKLRQAQEIAKNEIQNLDGLNSAQITKLIQDIGRTTTKPAVTQKLEEAKAINQAMQQLKQSIADKDATLNSSNYLNEDSEKKLAYDNAVSQAEQLINQLNDPTMDISNIQAITQKVIQAKDSLHGANKLAQNQADSNLIINQSTNLNDKQKQALNDLINHAQTKQQVAEIIAQANKLNNEMGTLKTLVEEQSNVHQQSKYINEDPQVQNIYNDSIQKGREILNGTTDDVLNNNKIADAIQNIHLTKNDLHGDQKLQKAQQDATNELNYLTNLNNSQRQSEHDEINSAPSRTEVSNDLNHAKALNEAMRQLENEVALENSVKKLSDFINEDEAAQNEYSNALQKAKDIINGVPSSTLDKATIEDALLELQNARESLHGEQKLQEAKNQAVAEIDNLQALNPGQVLAEKTLVNQASTKPEVQEALQKAKELNEAMKALKTEINKKEQIKADSRYVNADSGLQANYNSALNYGSQIIATTQPPELNKDVINRATQTIKTAENNLN
Kd: 10 µM
